From patent US20030091594A1

Legend:
[1] = biological target: 8x-V3BaL Env (whole Env, on virions or effector cells) (HIV-1); assay: cell-based or functional assay
[2] = biological target: IIIB-V3BaL Env on luciferase reporter virions (HIV-1); assay: cell-based or functional assay
[3] = biological target: CD4-induced (CD4i) monoclonal antibody 17b; assay: SPR (BIACORE 2000), MAb 17b amine-coupled to CM5 chip, gp120 as analyte, 25 C
[4] = biological target: CD4-induced (CD4i) monoclonal antibody 48d; assay: SPR (BIACORE 2000), MAb 48d amine-coupled to CM5 chip, gp120 as analyte, 25 C

monoclonal antibody 50.1
concentration for 50% neutralisation of reporter virus [1]: 45 ng/mL | concentration for 90% neutralisation of reporter virus [1]: 610 ng/mL | concentration for 50% neutralisation of reporter virus [2]: 95 ng/mL | concentration for 90% neutralisation of reporter virus [2]: 375 ng/mL

CD4-induced (CD4i) monoclonal antibody 17b
concentration for 50% neutralisation of luciferase reporter virus on GHOST-CCR5 cells [1]: 2 ng/mL | concentration for 90% neutralisation of luciferase reporter virus on GHOST-CCR5 cells [1]: 15 ng/mL | concentration for 50% neutralisation of luciferase reporter virus on GHOST-CCR5 cells [2]: 14 ng/mL | concentration for 90% neutralisation of luciferase reporter virus on GHOST-CCR5 cells [2]: 90 ng/mL

CD4-induced (CD4i) monoclonal antibody 48d
concentration for 50% neutralisation of luciferase reporter virus on GHOST-CCR5 cells [1]: 3 ng/mL | concentration for 90% neutralisation of luciferase reporter virus on GHOST-CCR5 cells [1]: > 200 ng/mL | percent neutralisation at 200 ng/ml [1]: 88% | concentration for 50% neutralisation of luciferase reporter virus on GHOST-CCR5 cells [2]: > 5000 ng/mL | concentration for 90% neutralisation of luciferase reporter virus on GHOST-CCR5 cells [2]: > 5000 ng/mL

8x gp120 (soluble gp120 of the HIV-1/IIIBx 8x Env clone) (from UniProt P04578 33-511)
Kd [3]: 15 nM | koff [3]: 0.002 s⁻¹ | kon [3]: 100000 M⁻¹ s⁻¹ | Kd [4]: 6 nM | koff [4]: 0.001 s⁻¹ | kon [4]: 200000 M⁻¹ s⁻¹
